These results are taken from ChEMBL document CHEMBL1133169, “A light-inactivated antibiotic” (2000).

Substrate in the data set: CC(=O)OCC1=C(C(=O)O)N2C(=O)[C@@H](NC(=O)[C@@H](Cc3ccccc3)NNC(=O)OCc3ccccc3[N+](=O)[O-])C2SC1
As to the kind of experiment: The turnover kinetic parameter (Km) evaluated for Class A TEM-1 beta-lactamase.

B1: Beta-lactamase TEM (Escherichia coli), P62593 (protein)
chain: MSIQHFRVALIPFFAAFCLPVFAHPETLVKVKDAEDQLGARVGYIELDLNSGKILESFRPEERFPMMSTFKVLLCGAVLSRVDAGQEQLGRRIHYSQNDLVEYSPVTEKHLTDGMTVRELCSAAITMSDNTAANLLLTTIGGPKELTAFLHNMGDHVTRLDRWEPELNEAIPNDERDTTMPAAMATTLRKLLTGELLTLASRQQLIDWMEADKVAGPLLRSALPAGWFIADKSGAGERGSRGIIAALGPDGKPSRIVVIYTTGSQATMDERNRQIAEIGASLIKHW
Turning to B1, the Km was 80 µM.
